Laboratory results: patent US20230036041A1, “SORTILIN BINDING CONJUGATE COMPOUNDS, COMPOSITIONS AND USES THEREOF FOR TREATING CANCER” (THERATECHNOLOGIES INC., priority 2019, published 2023)
Non-standard residues stand in square brackets, D forms with d. No end group written: not given here. Nle = CCCC[C@H](N)C(=O)O

Molecular target: T1, sortilin (Homo sapiens, UniProt Q99523)
T1 construct: endogenous in cells
T1 sequence (Q99523 78-831): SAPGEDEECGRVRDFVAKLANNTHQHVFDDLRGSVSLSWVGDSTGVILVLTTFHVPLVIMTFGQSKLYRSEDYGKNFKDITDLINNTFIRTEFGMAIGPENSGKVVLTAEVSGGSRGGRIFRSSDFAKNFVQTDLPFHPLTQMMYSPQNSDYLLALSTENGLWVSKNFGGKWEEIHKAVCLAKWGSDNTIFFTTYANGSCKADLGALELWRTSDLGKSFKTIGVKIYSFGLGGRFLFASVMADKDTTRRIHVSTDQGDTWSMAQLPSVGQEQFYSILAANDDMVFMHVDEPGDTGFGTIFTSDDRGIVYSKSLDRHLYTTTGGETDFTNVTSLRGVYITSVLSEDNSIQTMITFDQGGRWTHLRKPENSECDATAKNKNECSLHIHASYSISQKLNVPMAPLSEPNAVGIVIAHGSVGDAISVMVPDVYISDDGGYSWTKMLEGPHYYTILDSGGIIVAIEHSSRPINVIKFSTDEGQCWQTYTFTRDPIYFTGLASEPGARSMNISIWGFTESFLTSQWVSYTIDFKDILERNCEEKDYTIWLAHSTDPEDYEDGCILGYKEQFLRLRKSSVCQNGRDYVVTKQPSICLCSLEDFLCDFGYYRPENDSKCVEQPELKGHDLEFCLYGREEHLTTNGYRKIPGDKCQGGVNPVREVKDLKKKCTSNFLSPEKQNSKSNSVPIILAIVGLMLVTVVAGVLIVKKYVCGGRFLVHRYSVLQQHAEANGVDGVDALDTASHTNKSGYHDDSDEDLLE
Assay: uptake of the peptide upon sortilin siRNA
Type: cell-based
Conditions: FIG. 6
Experimental: In vitro testing of the TH19P01 peptide and the TH1902 conjugate compound was conducted.

uptake of the peptide: inhibited upon sortilin siRNA
Substance: Acetyl-GVRAKAGVRN(Nle)FKSESY (Ac-GVRAKAGVRN[Nle]FKSESY) [TH19P01]
